One experiment concerns A549 cells. Kind of experiment: A549 subcutaneous transplantation tumor model in CB17/SCID female mice. The experiment is classed as in vivo. Conditions: day 35 after tumor inoculation; 5 mg/kg intraperitoneal once per week for 4 weeks. As to the method: The experimental animals were CB17/SCID female mice, and A549 cells (5× 10^6) were subcutaneously inoculated into the mice to establish a subcutaneous transplantation tumor model. […] The groups each had 6 animals, and the animals in all the groups were subjected to intraperitoneal injection. […] The efficacy was evaluated based on tumor growth inhibition (TGI) (FIG. 9).

The subject of experiment [1] is advanced gynecological cancers. Conditions: patients with high expression of DKK1, stage 2 clinical; cited from earlier work.
In experiment [2] the target is T1, human DKK1 antigen (Sino Biological, 10170-H08H) (human, UniProt O94907 32-266).
T1 chain: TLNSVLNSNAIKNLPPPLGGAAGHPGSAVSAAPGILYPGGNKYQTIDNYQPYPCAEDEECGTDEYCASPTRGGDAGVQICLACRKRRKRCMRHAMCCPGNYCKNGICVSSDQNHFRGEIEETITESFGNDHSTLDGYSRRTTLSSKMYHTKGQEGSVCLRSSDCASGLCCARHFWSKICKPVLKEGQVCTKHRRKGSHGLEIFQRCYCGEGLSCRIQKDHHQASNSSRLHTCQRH
In words: ELISA binding; FIG. 4B. On the technique in general: An ELISA detects its analyte on a solid surface through an enzyme-linked reagent.

Experiment [3] addresses T1, human DKK1 antigen (Sino Biological, …). In words: ELISA blocking of DKK1-LRP6.
Experiment [4] has the same target. Kind of experiment: ELISA blocking of DKK1-LRP6.
Experiment [5] shares this target. In words: ELISA binding; given as IC50; FIG. 4A.

Where two headings read alike, the source gives them in different places.

Turning to “DKN-01: positive control anti-DKK1 monoclonal antibody; heavy and light chains SEQ ID NO: 108 and SEQ ID NO: 109”, in the experiment on A549 cells, the “tumor growth inhibition (TGI)” value was determined as 23.27%. In experiment [1], the disease control rate is on record as 57% and the objective remission rate was 14%.

B1: DKN-01 (antibody, V domains shown)
VH: EVQLVESGGGLVQPGGSLRLSCAASGFTFSSYTMSWVRQAPGKGLEWVATISGGGFGTYYPDSVKGRFTISRDNAKNSLYLQMNSLRAEDTAVYYCARPGYNNYYFDIWGQGTTVTVSS
VL: EIVLTQSPATLSLSPGERATLSCHASDSISNSLHWYQQKPGQAPRLLIYYARQSIQGIPARFSGSGSGTDFTLTISSLEPEDFAVYYCQQSESWPLHFGGGTKVEIKR
As for B1, the EC50 in experiment [2] is 0.0154 µg/mL; in experiment [5], 0.0148 µg/mL. Also, the IC50 in experiment [3] worked out at 0.324 µg/mL; in experiment [4], 1.24 µg/mL.

The term EC50 denotes the concentration giving half of the maximal effect. Low values mean a more potent agent, high ones a less potent agent. What is called IC50 is the midpoint of a concentration-inhibition curve. The low end stands for higher potency, the high end for lower potency.

The record behind these values is patent publication US20250122271A1, “ANTI-DKK1 ANTIBODY, PHARMACEUTICAL COMPOSITION THEREOF, AND USE THEREOF” (SHANGHAI JUNSHI BIOSCIENCES CO., LTD., priority 2022, published 2025).
